Results taken from patent publication US20150010572A1 (SAMSUNG ELECTRONICS, published 2015).

T1: mutant Ang-2 protein, Y460 substituted with alanine (FLAG-tagged at N-terminal) (human, UniProt O15123 281-496, limits assumed)
T1 chain: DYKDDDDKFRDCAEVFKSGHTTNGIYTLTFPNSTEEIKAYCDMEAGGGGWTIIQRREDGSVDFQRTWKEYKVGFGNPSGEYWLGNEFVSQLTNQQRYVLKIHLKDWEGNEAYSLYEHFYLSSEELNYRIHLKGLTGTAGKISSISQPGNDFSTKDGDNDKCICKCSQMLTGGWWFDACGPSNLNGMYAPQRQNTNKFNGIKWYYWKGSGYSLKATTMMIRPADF

T2: mutant Ang-2 protein, P419 substituted with alanine (FLAG-tagged at N-terminal) (human, UniProt O15123 281-496, limits assumed)
T2 chain: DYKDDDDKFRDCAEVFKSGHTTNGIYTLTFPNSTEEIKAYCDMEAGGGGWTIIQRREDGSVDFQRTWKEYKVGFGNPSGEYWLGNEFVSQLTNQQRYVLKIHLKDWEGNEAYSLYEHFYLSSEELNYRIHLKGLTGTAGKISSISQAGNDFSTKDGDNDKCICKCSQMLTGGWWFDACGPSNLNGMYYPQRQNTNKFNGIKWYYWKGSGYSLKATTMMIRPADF

T3: mutant Ang-2 protein, F469 substituted with alanine (FLAG-tagged at N-terminal) (human, UniProt O15123 281-496, limits assumed)
T3 chain: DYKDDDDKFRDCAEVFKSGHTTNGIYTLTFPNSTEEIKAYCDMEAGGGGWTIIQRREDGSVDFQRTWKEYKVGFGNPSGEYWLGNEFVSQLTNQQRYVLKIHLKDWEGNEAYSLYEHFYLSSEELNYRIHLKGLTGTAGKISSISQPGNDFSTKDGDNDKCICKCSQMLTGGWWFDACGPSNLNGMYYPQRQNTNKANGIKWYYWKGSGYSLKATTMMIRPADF

T4: mutant Ang-2 protein, P452 substituted with alanine (FLAG-tagged at N-terminal) (human, UniProt O15123 281-496, limits assumed)
T4 chain: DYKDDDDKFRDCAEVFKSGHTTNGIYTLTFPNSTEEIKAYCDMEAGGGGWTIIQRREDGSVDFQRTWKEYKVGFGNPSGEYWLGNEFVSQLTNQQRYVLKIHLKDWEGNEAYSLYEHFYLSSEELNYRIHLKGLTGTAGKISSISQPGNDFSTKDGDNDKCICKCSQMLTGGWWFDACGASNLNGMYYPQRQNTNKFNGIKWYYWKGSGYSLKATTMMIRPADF

T5: mutant Ang-2 protein, D448 substituted with alanine (FLAG-tagged at N-terminal) (human, UniProt O15123 281-496, limits assumed)
T5 chain: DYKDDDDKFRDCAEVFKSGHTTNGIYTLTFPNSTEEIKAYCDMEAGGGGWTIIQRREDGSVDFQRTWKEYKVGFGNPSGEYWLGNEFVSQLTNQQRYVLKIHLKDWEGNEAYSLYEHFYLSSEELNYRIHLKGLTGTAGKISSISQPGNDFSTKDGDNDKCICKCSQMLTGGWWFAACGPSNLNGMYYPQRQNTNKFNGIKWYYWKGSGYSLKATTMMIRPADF

T6: mutant Ang-2 protein, N421 substituted with alanine (FLAG-tagged at N-terminal) (human, UniProt O15123 281-496, limits assumed)
T6 chain: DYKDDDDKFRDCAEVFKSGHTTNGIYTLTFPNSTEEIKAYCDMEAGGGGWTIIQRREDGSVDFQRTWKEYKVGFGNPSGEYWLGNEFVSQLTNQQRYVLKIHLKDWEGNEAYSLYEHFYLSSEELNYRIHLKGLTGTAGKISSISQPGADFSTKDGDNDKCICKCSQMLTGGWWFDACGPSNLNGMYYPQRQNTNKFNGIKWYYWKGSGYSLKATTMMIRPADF


How the values were obtained:
Assay in all cases: ELISA, antibody coated, 250 ng FLAG-tagged mutant Ang-2, anti-FLAG-HRP, OD450 relative to native Ang-2
[1] = target: T1, mutant Ang-2 protein, Y460 substituted …
Procedure: (§1) Each well of a 96-well MaxiSorp™ flat-bottom plate (Nunc) was coated with 50 ul (microliter) of 1000 nM antibodies (Example 2). Then, the plate was washed five times with a 0.05% (v/v) Tween-20 containing PBS (PBST) and blocked with a 1% (v/v) BSA containing PBS at a room temperature for 2 hours. 250 ng of each mutant Ang-2 protein obtained by substituting S417, Q418, P419, N421, 1434, D448, A449, P452, Y460, N467, K468, or F469 residue of Ang-2 protein tagged with a FLAG sequence ([…], Sigma) at its N-terminal with alanine was added to each well of the plate, which was then allowed to react at a room temperature for 2 hours.
(§2) The plate was washed five times with a 0.05% (v/v) Tween-20 containing PBS, reacted with an anti-FLAG antibody (SIGMA) conjugated with HRP which was diluted in a 1% (v/v) BSA containing PBS at a ratio of 1:5,000 (v/v) at a room temperature for 1 hour, and washed five times with a 0.1% (v/v) Tween-20 containing PBS.
(§3) Finally, 50 ul of TMB substrates (Cell signaling) was added to each well of the plate to induce color development reaction at a room temperature for 3 min. and the reaction was ceased by the addition of 50 ul of Stop solution (Cell signaling) and then, OD450 values were measured on a plate reader (Molecular Devices). By comparing binding affinities with mutated Ang-2 to those of unmutated Ang-2, each epitope of Ang-2 antibodies was identified. The thus obtained measurement results of the binding affinities (%) of mutant Ang-2 against the binding affinity of the native Ang-2 are shown in the following Table 9.

[2] = target: T2, mutant Ang-2 protein, P419 substituted …
Procedure: as §1, §2, §3

[3] = target: T3, mutant Ang-2 protein, F469 substituted …
Procedure: as §1, §2, §3

[4] = target: T4, mutant Ang-2 protein, P452 substituted …
Procedure: as §1, §2, §3

[5] = target: T5, mutant Ang-2 protein, D448 substituted …
Procedure: as §1, §2, §3

[6] = target: T6, mutant Ang-2 protein, N421 substituted …
Procedure: as §1, §2, §3

Binder | % at RBD binding (mutant Ang-2 against native Ang-2) [1] | % at RBD binding (mutant Ang-2 against native Ang-2) [2] | % at RBD binding (mutant Ang-2 against native Ang-2) [3] | % at RBD binding (mutant Ang-2 against native Ang-2) [4] | % at RBD binding (mutant Ang-2 against native Ang-2) [5] | % at RBD binding (mutant Ang-2 against native Ang-2) [6]
SAIT-Ang-2-AB-m8B3 (antibody, V domains shown, also called KCLRF-BP-00293) VH: DVQLQESGPGLVKPSQSLSLSCTVTGYSIASDYAWNWIRQFPGNKVEWMGYINYRGNTDYNPSLKSRSSINRDTSKNQFFLQLNSVTTGDTATYYCARGNFEGAMDYWGQGTSVTVSS VL: TIVMTQTPKFLLVSAGDRITITCKASQSVSNDVAWYQQKPGQSPKLLIYYASNRYPGVPDRFTGSGYGTDFTFTISTVQAEDLAVYFCQQDYTSPWTFGGGTELEIK | 100% | 8.7% | 106% | 102% | 96.1% | 102%
SAIT-Ang-2-AB-m2E7 (antibody, V domains shown, also called KCLRF-BP-00294) VH: DLQLQESGPGLVKPSQSLSLTCTVTGYSITSDYAWNWIRQFPGNKLEWMGYISYSGSTSYNPSLKSRISITRDTSKNQFFLQLNSLTTEDTATYYCARGDYGNYVGPMDYWGQGTSVTVSS VL: SIVMTQTPKFLLVSAGDRVTITCKASQSVSNDVAWYRQKPGQSPKLLIYYASNRYTGVPDRFTGSGYGTDFTFTISTVQAEDLAVYFCQQDYSSPLTFGARTKLELK | 98.7% | 88.6% | 102% | 90.1% | 96.9% | 98.9%
